These results are taken from patent publication US20250163167A1 (SYNTHEKINE, published 2025).

T1: hIL10Ra-his (Sino Biological, Catalog#10419) (human, UniProt Q13651 22-235)
T1 construct: Bought; also called Sino Biological cat#10419-H08H; not shown: C-terminal poly-His tag
T1 sequence: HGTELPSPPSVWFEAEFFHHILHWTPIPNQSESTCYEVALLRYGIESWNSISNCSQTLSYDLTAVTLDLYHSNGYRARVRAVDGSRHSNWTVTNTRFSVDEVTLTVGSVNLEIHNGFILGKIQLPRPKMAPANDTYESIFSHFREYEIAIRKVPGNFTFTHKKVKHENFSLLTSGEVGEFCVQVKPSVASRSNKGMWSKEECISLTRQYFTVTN

T2: hIL10Rb-his (Sino Biological, Catalog#10945) (human, UniProt Q08334 20-220)
T2 construct: Bought; also called Sino Biological cat#10945-H08H; not shown: C-terminal poly-His tag
T2 sequence: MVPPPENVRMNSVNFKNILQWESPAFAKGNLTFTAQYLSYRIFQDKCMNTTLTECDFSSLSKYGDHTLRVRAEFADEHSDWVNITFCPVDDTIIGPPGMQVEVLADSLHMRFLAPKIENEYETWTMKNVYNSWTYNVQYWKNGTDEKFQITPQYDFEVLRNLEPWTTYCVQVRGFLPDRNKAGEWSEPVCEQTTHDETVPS

T3: mIL10Rb ECD antigen (mouse, UniProt Q61190 20-220)
T3 construct: Antigen of biopanning and PE-ELISA; also called extracellular domain of mIL10Rb
T3 sequence: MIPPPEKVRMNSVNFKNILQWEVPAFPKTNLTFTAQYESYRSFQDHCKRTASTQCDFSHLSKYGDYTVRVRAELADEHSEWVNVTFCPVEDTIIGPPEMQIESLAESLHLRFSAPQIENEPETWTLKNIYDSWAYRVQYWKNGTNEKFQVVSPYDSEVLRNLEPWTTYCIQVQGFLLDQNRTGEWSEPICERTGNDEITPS

B1: hIL10Ra_VHH12-hIL10Rb_VHH27 biotin (bispecific antibody)
chain: QVQLQESGGGSVQAGGSLRLSCTVSGYTYSSNCMGWFRQAPGKEREGVATIYTGGGNTYYADSVKGRFTISQDNAKNTVYLQMNNLKPEDTAMYYCAAEPLSRVYGGSCPTPTFDYWGQGTQVTVSSGGGSQVQLQESGGGSVQTGGSLRLSCAASGYTYLRGCMGWFRQAPGKEREGVAVMDVVGDRRSYIDSVKGRFTISRDNAANSVYLQMDNLKPEDTAMYYCTAGPNCVGWRSGLDYWGQGTQVTVSS
modifications: conjugated to biotin (site not stated)
notes: also called IL10 VHH DR509 biotin; DR509
B2: hIL10Rb_VHH12-hIL10Ra_VHH8 biotin (bispecific antibody)
chain: QVQLQESGGGSVQAGGSLRLSCAASGYTYSSYCMGWFRQAPGKEREGVAHIDSDGSTSYADSVKGRFTISKDNAKNTLYLQMNSLKPEDTAMYYCAADPIPGPGYCDGGPNKYWGQGTQVTVSSGGGSQVQLQESGGGSVQAGGSLRLSCAASGYTYSMYCMGWFRQAPGKEREGVAQINSDGSTSYADSVKGRFTISKDNAKNTLYLQMNSLKPEDTAMYYCAADSRVYGGSWYERLCGPYTYEYNYWGQGTQVTVSS
modifications: conjugated to biotin (site not stated)
B3: hIL10Rb_VHH1-hIL10Ra_VHH9-biotin (bispecific antibody)
chain: QVQLQESGGGSVQAGGSLRLSCAASGYTYSSGCMGWFRQAPGKEREAVAAINSDGSTSYADSVKGRFTISKDNAKNTLYLQMNSLKPEDTAMYYCAAEPYCSGGYPRWSVAEFGYWGQGTQVTVSSGGGSQVQLQESGGGSVQAGGSLRLSCAVSGYAYSTYCMGWFRQAPGKEREGVAAIDSGGSTSYADSVKGRFTISKDNAKNTLYLRMNSLKPEDTAMYYCAAVPPPPDGGSCLFLGPEIKVSKADFRYWGQGTQVTVSS
modifications: conjugated to biotin (site not stated)
B4: hIL10Ra_VHH17-hIL10Rb_VHH16 biotin (bispecific antibody)
chain: QVQLQESGGGSVQAGGSLRLSCAASGYSNCSYDMTWYRQAPGKEREFVSAIHSDGSTRYADSVKGRFFISQDNAKNTVYLQMNSLKPEDTAMYYCKTDPLHCRAHGGSWYSVRANYWGQGTQVTVSSGGGSQVQLQESGGGSVEAGGSLRLSCAASGYTHSSYCMGWFRQAPGKEREGVAAIDVDGSTTYADSVKGRFTISKDNAKNTLYLQMNSLKPEDTGMYYCAAEFADCSSNYFLPPGAVRYWGQGTQVTVSS
modifications: conjugated to biotin (site not stated)
B5: hIL-10Rb_VHH12 Mono-Fc (Fc fusion)
chain: QVQLQESGGGSVQAGGSLRLSCAASGYTYSSYCMGWFRQAPGKEREGVAHIDSDGSTSYADSVKGRFTISKDNAKNTLYLQMNSLKPEDTAMYYCAADPIPGPGYCDGGPNKYWGQGTQVTVSS
notes: Mono-Fc VHH captured on Protein A; not shown: mono-Fc part
B6: hIL-10Rb_VHH3 Mono-Fc (Fc fusion)
chain: QVQLQESGGGSVQAGGSLRLSCAASRYTYNSYCMGWFRQAPGKEREGVATIDSDGMTRYADSVKGRFTISKDNAKNTLYLQMNSLKPEDTAMYYCAADADCTIAAMTTNPLGQGTQVTVSS
notes: as for B5
B7: hIL-10Rb_VHH1 Mono-Fc (Fc fusion)
chain: QVQLQESGGGSVQAGGSLRLSCAASGYTYSSGCMGWFRQAPGKEREAVAAINSDGSTSYADSVKGRFTISKDNAKNTLYLQMNSLKPEDTAMYYCAAEPYCSGGYPRWSVAEFGYWGQGTQVTVSS
notes: as for B5
B8: hIL-10Rb_VHH27 Mono-Fc (Fc fusion)
chain: QVQLQESGGGSVQTGGSLRLSCAASGYTYLRGCMGWFRQAPGKEREGVAVMDVVGDRRSYIDSVKGRFTISRDNAANSVYLQMDNLKPEDTAMYYCTAGPNCVGWRSGLDYWGQGTQVTVSS
notes: as for B5
B9: hIL-10Rb_VHH26 Mono-Fc (Fc fusion)
chain: QVQLQESGGGSVQAGGSLRLSCAASGYSYSSYCMGWFRQAPGKEREGVATIDSDGMTRYADSVKGRFTISKDNAKNTLYLQMNSLKPEDTAMYYCAAPLYDCDSGAVGRNPPYWGQGTQVTVSS
notes: as for B5
B10: hIL-10Rb_VHH15 Mono-Fc (Fc fusion)
chain: QVQLQESGGGSVQAGGSLRLSCTVSRYTASVNYMGWFRQAPGKEREGVATIFTGAGTTYYANSVKGRFTISRDNAKNTAYLQMNSLKPEDTAIYYCAVDFRGGLLYRPAYEYTYRGQGTQVTVSS
notes: as for B5
B11: DR1326 (anti mouse mIL10Rb VHH) (VHH)
VHH: QVQLQESGGGSVQAGGSLRLSCTASRYIALNACMAWIRQAPGSEREVVATIVTDGSRTYYADSVKGRFTISQDNAKNTMYLQMNGLKPEDTAMYYCAADRRCPVSRAPYEYELRYWGQGTQVTVSS
notes: Phage clone, periplasmic extract
B12: DR1325 (anti mouse mIL10Rb VHH) (VHH)
VHH: QVQLQESGGGSVQAGGSLRLSCAASGYTYNRRFMGWFRQAPGKEREGLAIIYTPNSSTFYADSVTGRFTISQDSARNTVYLQMNSLKPEDTAMYYCAAARIASMTELSVRDMDYWGKGTQVTVSS
notes: as for B11
B13: DR1327 (anti mouse mIL10Rb VHH) (VHH)
VHH: QVQLQESGGGSVQAGGSLRLSCAASGYTYNGKCMAWFRQAPGKEREVVAGIYTGGSSTYYADSVKGRFTISQDNAKNTVYLQMDSLKPEDTAMYYCATSRSCSDLRRRSIAYWGQGTQVTVSS
notes: as for B11
B14: hIL-10Rb_VHH16 Mono-Fc (Fc fusion)
chain: QVQLQESGGGSVEAGGSLRLSCAASGYTHSSYCMGWFRQAPGKEREGVAAIDVDGSTTYADSVKGRFTISKDNAKNTLYLQMNSLKPEDTGMYYCAAEFADCSSNYFLPPGAVRYWGQGTQVTVSS
notes: as for B5

The first test deals with T1, hIL10Ra-his (Sino Biological, …). Briefly: SPR Biacore T200; biotinylated dual VHH captured on CAP biotin chip, hIL10Ra-his analyte; 1:1 Langmuir fit. (Surface plasmon resonance follows binding to a sensor surface in real time, without labels.)
For orientation: Kd means the equilibrium constant for the complex coming apart. Low values mean a tighter complex, high ones a looser complex. By koff is commonly meant the rate constant with which the complex falls apart. Read a low koff as slow dissociation. One may read the kon as the rate constant with which the complex forms. Higher therefore signals faster complex formation. On to B1, for which binding was put at a Kd of 0.2 nM, the off-rate (koff) was 0.00013 s⁻¹ and the kon amounted to 490000 M⁻¹ s⁻¹.

In the case of B2, the Kd was determined as 0.35 nM, the koff was 6.5e-05 s⁻¹ and the kon was determined as 180000 M⁻¹ s⁻¹.

Turning to B3, the Kd was 1.1 nM, the koff is 0.00027 s⁻¹ and the kon worked out at 250000 M⁻¹ s⁻¹.

The next test shares this target. As to the kind of experiment: SPR Biacore T200; biotinylated dual VHH captured on CAP biotin chip, hIL10Ra-his analyte; kon, koff and Rmax printed N/A.
Regarding B4, the equilibrium dissociation constant (Kd) was less than 5 nM.

For another test, the target named is T2, hIL10Rb-his (Sino Biological, …). Briefly: SPR Biacore T200; mono-Fc VHH captured on Protein A chip, hIL10Rb-his analyte; 1:1 Langmuir fit.
As to B5, the affinity, expressed as Kd, was 12.9 nM; the koff turned out to be 0.00143 s⁻¹; the kon was 111000 M⁻¹ s⁻¹.

B6: the Kd came to 231 nM, the koff was found to be 0.0214 s⁻¹ and the kon was 92900 M⁻¹ s⁻¹.

B7: the Kd was 8.3 nM, the koff stood at 0.00144 s⁻¹ and the kon was found to be 175000 M⁻¹ s⁻¹.

In the case of B8, the Kd is 2.4 nM, the koff stood at 0.0254 s⁻¹ and the kon is 1.07e+07 M⁻¹ s⁻¹.

B9 had a Kd of 314 nM, a koff of 0.0213 s⁻¹ and a kon of 67800 M⁻¹ s⁻¹.

Turning to B10, the affinity, expressed as Kd, was 121 nM; the koff turned out to be 0.00866 s⁻¹; the kon came out at 71800 M⁻¹ s⁻¹.

The target of a further test is T3, mIL10Rb ECD antigen. Briefly: periplasmic extract ELISA (PE-ELISA) of phage clones. A general note: In an ELISA, binding on a coated surface is turned into a signal by an enzyme label.
With B11, the binding result is “binds”.

For B12, the binding result is recorded as “binds”.

Turning to B13, the binding result was “binds”.

The next test addresses T2, hIL10Rb-his (Sino Biological, …). Briefly: SPR Biacore T200; biotinylated dual VHH captured on CAP biotin chip, hIL10Rb-his analyte; 1:1 Langmuir fit.
The molecule B4 registered a Kd of 2.9 nM, an off-rate constant (koff) of 0.00045 s⁻¹ and a kon of 160000 M⁻¹ s⁻¹.

Regarding B1, binding was put at a Kd of 1.9 nM, the koff was determined as 0.003 s⁻¹ and the on-rate constant (kon) was determined as 1.6e+06 M⁻¹ s⁻¹.

With B2, the Kd was 1.5 nM, the koff was 0.00068 s⁻¹ and the association rate constant (kon) stood at 440000 M⁻¹ s⁻¹.

B3 displayed a Kd of 2.7 nM, a koff of 0.0018 s⁻¹ and a kon of 660000 M⁻¹ s⁻¹.

A further test shares this target. Briefly: SPR Biacore T200; mono-Fc VHH captured on Protein A chip, hIL10Rb-his analyte; 1:1 Langmuir fit (row flagged: inaccurate fit). From the text: To confirm and evaluate binding affinities of the binding of the hIL10Rb sdAbs, a representative example from each clonotype generated was selected for evaluation of binding via SPR. […] RMAX<100 RU indicates surface density compatible with kinetics analysis. Calculated Rmax values were generated using the equation: Rmax=Load (RU)×valency of ligand×(Molecular weight of analyte/Molecular weight of ligand). Surface activity was defined as the ratio of experimental/calculated Rmax.
One representative example from each clonotype of IL10a generated in accordance with Examples 1-3 was selected for evaluation of binding via SPR as follows. […] All experiments were conducted in 10 mM Hepes, 150 mM NaCl, 0.05% (v/v) Polysorbate 20 (PS20) and 3 mM EDTA (HBS-EP+ buffer) on a Biacore T200 instrument equipped with a Protein A derivatized sensor chip (Cytiva). Mono-Fc VHH ligands were flowed at 5 μl/min for variable time ranging from 18 to 300 seconds, reaching the capture loads listed in the tables below. Following ligand capture, injections of a 2-fold dilution series of the extracellular domain of the […] modified to incorporate a C-terminal poly-His sequence, typically comprising at least five concentrations between 1 μM and 1 nM, were performed in either high performance or single cycle kinetics mode. Surface regeneration was achieved by flowing 10 mM glycine-HCl, pH 1.5 (60 seconds, 50 μL/min).
Take B14: the affinity, expressed as Kd, was 7540 nM; the koff is 0.0221 s⁻¹; the on-rate (kon) is 2930 M⁻¹ s⁻¹.

Another test shares this target. As to the kind of experiment: SPR; ratio of experimental to calculated Rmax.
Consider B4, for which the Activity is 34%.

On to B1, for which the Activity is 85%.

For the molecule B2, the Activity is 42%.

With B3, the Activity is 25%.

For another test the target is unchanged. Briefly: SPR; ratio of experimental to calculated Rmax. The source holds these as a separate data set.
With B5, the “Surface Activity” value is 67%.

Take B6: the “Surface Activity” value was 52%.

Turning to B7, the “Surface Activity” value was 82%.

Take B8: the “Surface Activity” value is 24%.

In the case of B9, the “Surface Activity” value is 54%.

Turning to B10, the “Surface Activity” value is 18%.
